In patent US20200131224A1, “Methods for Synthesis of Radionuclide Complex” (Advanced Accelerator Applications (Italy) S.R.L., priority 2018, published 2020):

Test: Radiochemical purity (RCP) of the Drug Substance 72 hours from end of synthesis
Assay type: physicochemical
Conditions: radiochemical purity 72 hours from end of synthesis; reaction time 5 min; reactor temperature 80 or 100 °C by batch
Protocol: The reaction temperature has been tested between 80° C. and 100° C. for labeling times of 5 minutes.

SMILES | RCP (%) t72 h [%]
C[C@@H](O)[C@H](NC(=O)[C@@H]1CSSC[C@H](NC(=O)[C@@H](Cc2ccccc2)NC(=O)CN2CCN(CC(=O)[O-])CCN(CC(=O)[O-])CCN(CC(=O)[O-])CC2)C(=O)N[C@@H](Cc2ccc(O)cc2)C(=O)N[C@H](Cc2c[nH]c3ccccc23)C(=O)N[C@@H](CCCCN)C(=O)N[C@@H]([C@@H](C)O)C(=O)N1)C(=O)O.[177Lu+3] [LT141013B-03, ^177Lu-DOTA0-Tyr^3-Octreotate] | 95.9
C[C@@H](O)[C@H](NC(=O)[C@@H]1CSSC[C@H](NC(=O)[C@@H](Cc2ccccc2)NC(=O)CN2CCN(CC(=O)[O-])CCN(CC(=O)[O-])CCN(CC(=O)[O-])CC2)C(=O)N[C@@H](Cc2ccc(O)cc2)C(=O)N[C@H](Cc2c[nH]c3ccccc23)C(=O)N[C@@H](CCCCN)C(=O)N[C@@H]([C@@H](C)O)C(=O)N1)C(=O)O.[177Lu+3] [LT141013C-03, ^177Lu-DOTA0-Tyr^3-Octreotate] | 95.8
